Data reported in the nanobody polyreactivity screen of Harvey et al. (2022).

Test: yeast display, Sf9 membrane polyspecificity reagent, FACS + sequencing; frameworks hold sequencing errors
Procedure, shortened: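 Sorting gates, low and high (top ~1%), were placed on anti-HA fluorescence to track expression and on streptavidin fluorescence to track reagent binding. A clone's polyreactivity label is taken from the gate it came out of. The reagent was 10% biotinylated, detergent-solubilized Sf9 membrane, applied for 1 hour at 4 °C to galactose-induced yeast display cells.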

Sequence | polyreactivity (PSR sort gate)
QVQLVESGGGLVQAGGSLRLSCAASGFTFPLNARGWYRQAPGKERELVAAITNGGTTYYADSVKGRFTISRDNAKNTVYLQMHSLKPEDTAVYYCAAYTYRYGSFKYGYWGQGTQVTVSS | low polyreactivity
QVQLVESGGGLVQAGGSLRLSCAASGFTFYSYAMGWYRQAPGKERELVASISQSGGRTYYADSVKGRFTISRDNAKNTVYLQMNSLKPEDTAVYYCARQRSYGRSSYSYGYDYWGQGTKVTVSS | high polyreactivity
QVQLVESWGGLDQAGGSLRLSCAASGSTFYAYAMGWYRPAPGKERELVAAISSDGTNYADSVKGRFTISRDNAKNTVYLQMNSLKPEDTAVYYCAADLLLYSSQDNDFWGQGTQVTVSS | low polyreactivity
QVQLVESGGGLVQAGGSLRLSCAACGITFTSNAMGWYRQAPGKERELVASISWSDDNTHYADSVKGRFTISRDNAKYTVYLQMNSLKPEDTAVYYCAADGTHPRPGTYKFDYWGQGTQVTVSS | low polyreactivity
QVQLVESGGGLVQAGGSLRLSCAASGITFNVYAMGWYRQAPGKERELVAAISYNGGRTYYADSVKGRFTISRDNAKNTVYLPMNSLKPEDTAVYYCAAQWPWGPYDYWGQGTQVTVSS | high polyreactivity
QVKLGESGGGLVQAGGSLRLSCAASGSILEFNAKGWYRQAPGKERELVAGITRDGGTTYADSVKGRFTISRDNAKNNVYFQMNSLKPEDNAVYYCAGTYYFSRWDLYGYWGHGTQVTVSS | low polyreactivity
QVQLVESGGGLVQAGGSLRLSCAASGRTFLPNAMGWYRQAPGKERELVAAINWRGASTYYADSVKGRFTISRDNAKNTVYLQMNSLKPEDTAVYYCAVDSHYQSYYYRRYDYWGQGTQVTVSS | low polyreactivity
QVQLVESGGGLVQAGGSLRLSCAPSGNIFETYAMGWYRPAPGKERELVAVITRGGSTYYADSVKGRFTISRDNAKNTVYLQMNSLKPEDTAVYYCARDAYDDWYGLTDDKSDYWGQGTQVTLSS | low polyreactivity
QVQLVESGGGLVQAGGSLRLSCAASGSIFNYNMGWYRQAPGKERELVAAVSTNYADSVKGRFTISRDNAKNTVYLQMNSLKPEDPAGYYCGVTPEKSGDQYDYWGPGTQVTVSS | low polyreactivity
QVQLVESGGGLVQAGGSLRLSCAASGFIFDVYAMGWYRQAPGTERELVAAITSGDGTNYADSVKGRFTISRDNAKNTVYLQMNSLKPEETAVYYCAADDGVTYRGIIFSYWGQGTQVTVSS | low polyreactivity
QVQLVESGGGLVQAGGSLRLSCAASGSIFSKYAMGWYRQAPGKERELVAAISWSGTSTYYADSVKGRFTISRDNAKNTVYLQMNSLKPEDTAVYYCAASSPRSLSLLGYWGQGTQVTVSS | low polyreactivity
QVQLVESGGGLVQAGGSLRLSCAASGSTFLTNAMGWYRQAPGKERELVAAIRTSGGSTYYADSVKGRFTISRDNAKNTVYLQMNSLKPEDTAVYYCAASYRRRRFSEYYYWGQGTQVTVSS | high polyreactivity
QVQLVESGGGLVQAGGSLRLTCAASARIFGYYVMGWSRQAPGKETELVAAIRSSADSTYYADSVKGRFTISRDNAKNTVYLQMNSLKPEDTAVYYCAAQSPAYYTKSYWGQGTQVTVSS | low polyreactivity
QVQLVESGGGLVQAGGSLRLSCAASGFIFYYNTMGWYRQAPGKERELVAAINSGGSTYYADSVKGRFTISRDNAKNTVYLQMNSLKPEDTAVYYCAKRYAVSSRYYYWGQGTQVTVSS | high polyreactivity
QVQLVESGGGLVQAGGSLRLSCAASGLTLDKYAMGWYRPAPRKERELVAGINSRGGSTYADSVKGRFTISRDNAKNTVYLQMNSMKPEDTAVYYCAADGKVQGGYYWGQGTQVTVSS | high polyreactivity
QFQLVESGGGLVQAGGSLRLSCAASGRIFFRNAMGWYIQAPGKETELVADNTNGGSTNYADSEKGRFTISRDNAKYTVYLQMNSLNPEDTAVYYCAADTLGVYDGDYWGQGTQVTVSS | low polyreactivity
QVQLVESGGGLVQAGGSLRLSCAASGSIFPHYAMGWSRQAPGKEREFVATISGSTGRTYYADSVKGRFTISRDNAKNTVYLQMNSLKPEDTAVYYCATSVGYYLPPIKYDYWGQGTQVTVSS | low polyreactivity
QVQLVESGGGLVQAGGSLRLSCAASGSIIWYYAMVWYRQAPGIERELGAAMTGTGGNTYYADSVKGRFTLSRDNAKNTVYLQMNSLKPEDTAVYYCDVRAYPSYPRGVYAYYYWGHGTQVTVSS | high polyreactivity
QVQLVESGGGLVQAGGSLRLSCAASGLIFYRYTMGWYRQAPGKERELVAAISWRGTRTYYADSVKGRFTISRDNAKNTVYLQMNSLKPEDTAVYYCTAGYVRRYSPSSSWRYDYWGQGTQVTVSS | high polyreactivity
QVQLVESGGGLVQAGGSLRLSCAASGRIFGAYAMGWYRQAPGKERELVAAITSGGSTYYADSVKGRFTISRDNAKNTVYLQMNSLKPEDTAVYYCNALRRSQPWKYDYWGQGTQVTVSS | low polyreactivity
QVQLVDSGGDLVQAGGSLSLSCAASGRIFVYYAMGWYRQAPGTERELVAVITSVGSTYYADSVKGRFTISRDNAKNTVYLQMNSLKPEDTAVYYCAAEWEYYGFDYWGQGTQVTVSS | low polyreactivity
QVQLVESGGGLVQAGGSLRLSCAASGSIFRYNTMGWYRQATGKERELDATITRRGGSTYYADSVKGRFTISRDNAKNTVYLQMNSLKPEDTAVYYCNADNFGGPFNYWGQGTQVTVSS | low polyreactivity
